Assay results reported in US20240239878A1 (SHANGHAI QILU PHARMACEUTICAL RESEARCH AND DEVELOPMENT CENTRE, published 2024).
Read-outs that look alike come from different tables or passages of the source. Each block holds one binder with its values, some of them ahead of it.

Legend:
[1] = target: T1, human DLL3 on SHP-77 cells (human, UniProt Q9NYJ7 27-618); assay: flow cytometry, SHP-77 cells
T1 construct: also called DLL3-expressing cells (SHP-77)
T1 sequence: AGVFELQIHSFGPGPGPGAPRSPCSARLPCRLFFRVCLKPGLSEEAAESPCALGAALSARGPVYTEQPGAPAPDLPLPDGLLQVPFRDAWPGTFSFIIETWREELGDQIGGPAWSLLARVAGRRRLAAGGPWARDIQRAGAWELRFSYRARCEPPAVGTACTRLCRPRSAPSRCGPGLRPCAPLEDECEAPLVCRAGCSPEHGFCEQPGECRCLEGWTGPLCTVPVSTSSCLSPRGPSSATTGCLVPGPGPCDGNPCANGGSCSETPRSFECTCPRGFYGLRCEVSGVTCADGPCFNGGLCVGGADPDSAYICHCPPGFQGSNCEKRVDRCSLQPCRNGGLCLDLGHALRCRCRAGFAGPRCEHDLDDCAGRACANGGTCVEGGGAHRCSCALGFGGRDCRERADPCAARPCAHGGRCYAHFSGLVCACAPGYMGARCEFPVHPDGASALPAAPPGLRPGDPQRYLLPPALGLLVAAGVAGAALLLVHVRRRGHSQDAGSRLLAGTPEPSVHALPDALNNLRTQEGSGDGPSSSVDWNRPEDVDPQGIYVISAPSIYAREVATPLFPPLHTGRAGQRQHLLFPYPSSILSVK

[2] = target: T1, human DLL3 on SHP-77 cells; assay: flow cytometry, SHP-77 cells; remark: listed apart in the source
Procedure, shortened: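 Trypsinised SHP-77 cells in 1% BSA/PBS were incubated with antibody (100 nM top, 10-fold steps, 7 concentrations) for 1 h at 4° C. Bound antibody was detected with goat anti-human IgG Fc-PE for 0.5 h at 4° C and read as PE mean fluorescence intensity. EC50 and Top MFI were derived from the curves.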

[3] = target: T2, human DLL1 (Sino Biological, Cat. No. 11635-H08H) (human, UniProt O00548 18-545); assay: ELISA, plate coated with human DLL1 at 1 ug/mL, OD 450nm
T2 construct: also called family protein DLL1
T2 sequence: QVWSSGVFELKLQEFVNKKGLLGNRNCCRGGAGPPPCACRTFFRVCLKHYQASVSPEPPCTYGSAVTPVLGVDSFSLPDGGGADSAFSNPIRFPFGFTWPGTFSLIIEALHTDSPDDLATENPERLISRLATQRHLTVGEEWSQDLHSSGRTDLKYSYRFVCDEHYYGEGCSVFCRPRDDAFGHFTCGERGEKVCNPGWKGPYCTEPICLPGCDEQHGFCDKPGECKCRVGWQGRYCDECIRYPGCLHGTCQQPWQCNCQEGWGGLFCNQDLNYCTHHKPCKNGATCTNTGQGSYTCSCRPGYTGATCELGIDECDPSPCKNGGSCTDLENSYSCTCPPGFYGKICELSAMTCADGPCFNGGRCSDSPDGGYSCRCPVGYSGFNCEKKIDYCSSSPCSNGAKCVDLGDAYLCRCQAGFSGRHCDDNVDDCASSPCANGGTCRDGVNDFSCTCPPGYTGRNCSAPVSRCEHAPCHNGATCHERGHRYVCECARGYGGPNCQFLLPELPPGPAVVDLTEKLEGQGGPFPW
Experimental: The antigenic proteins human DLL1 (SinoBiological, cat. No. 11635-H08H) or human DLL4 (SinoBiological, cat. No. 10171-H08H) were dissolved in 1×PBS at a concentration of 1 μg/mL. […] The antigen was washed three times with PBST, 300 μL/well. The antigen was blocked with 1% BSA (in PBST), 200 µL/well, and incubated at 37° C. for 1.5 hours.
Antibodies to be tested were diluted with 1% BSA (in PBS) at a starting concentration of 100 nM, downwards by a 10-fold gradient for 7 concentrations. The plates were washed three times with PBST, 300 μL/well. The diluted antibody was added to an ELISA plate at 100 μL/well and incubated at room temperature for 2 hours. The antibodies were washed three times with PBST, 300 μL/well. The secondary antibodies (goat anti-human IgG Fc for DLL4 (HRP), 1:20000 dilution; HRP goat anti-mouse IgG (H+L) for DLL1, 1:10000 dilution) were diluted with 1% BSA in PBST. The diluted secondary antibodies were added to the ELISA plate at 100 μL/well and incubated at room temperature for 1 hour. The plates were washed 6 times with PBST, 300 μL/well. The developing solution (TMA and TMB 1:1 mixed) was prepared. The developing solution was added to the plate, 100 μL/well, and incubated in the dark for 5 min. 50 μL of ELISA stop solution was added to the plate and shaken well.

- EC50 [1]: 68 pM
- Top MFI [1]: 1080 MFI
B1: hDLL3-3-1 camelid-derived humanized anti-DLL3 antibody (antibody, human IgG1, V domains shown)
VH: EVQLVESGGGLVQPGGSLRLSCAASTYTISSGYMGWFRQAPGKEREGVAAIYIGGSTTLYADSVKGRFTISRDNSKNTLYLQMNSLRAEDTAVYYCAAQLRPNSAYHPLDGRKYNYWGQGTLVTVSS

- EC50 [2]: 1120 pM
- Top MFI [2]: 1570 MFI
- binding result [3]: no binding (tested: 100 nM)
B2: H2-39E2D11 mouse hybridoma-derived humanized anti-DLL3 antibody (antibody, V domains shown)
VH: QVQLVQSGAEVKKPGASVKVSCKASGYTFISYWITWVRQAPGQGLEWMGDIYPGSGSTTNYNEKFKSRVTMTRDTSTSTVYMELSSLRSEDTAVYYCARETTVGGAYAMDYWGQGTLVTVSS
VL: EIVLTQSPATLSLSPGERATLSCRASQSINNNLHWYQQKPGQAPRLLIKYVSQSISGIPARFSGSGSGTDFTLTISSLEPEDFAVYYCQQTNSWPLTFGGGTKLEIK
